Results on two molecules are retold here after PMC5542402.

Where two headings read alike, the source gives them in different places.

Data set [1] addresses T1, PhoP (Mycobacterium tuberculosis, UniProt P71814 1-247). Nature of the data set: ITC. (In general: ITC needs no label: the signal is the heat of the interaction.)
In data set [2] the target is T1, PhoP. Nature of the data set: ITC. The source holds these as a separate data set.

B1: sel36 (dsDNA)
DNA 1: GATTCACAGCTGATTCACAGCATCTAG
DNA 2: CTAGATGCTGTGAATCAGCTGTGAATC
On to B1, for which the affinity in data set [1], expressed as Kd, was 8.03 ± 3.42 nM.

B2: sel36m (dsDNA)
DNA 1: GATTCACAGCTGATACACAGGATCTAG
DNA 2: CTAGATCCTGTGTATCAGCTGTGAATC
As for B2, the affinity in data set [2], expressed as Kd, was 32.3 ± 4.12 nM.

The term Kd denotes the concentration at which binding is half-saturated. Read a low Kd as a tighter complex.
